From patent publication US20250101135A1

Experiments:
[1] = target: mouse 4-1BB on activated mouse splenocytes (mouse) (UniProt P20334); test: flow cytometry, activated mouse splenocytes, CD8+ T cells, PE anti-human IgG Fc secondary, MFI baseline corrected
[2] = target: mouse 4-1BB on activated mouse splenocytes (mouse) (UniProt P20334); test: flow cytometry, activated mouse splenocytes, CD4+ T cells, PE anti-human IgG Fc secondary, MFI baseline corrected

Chain of mouse 4-1BB on activated mouse splenocytes (mouse) (P20334 24-256): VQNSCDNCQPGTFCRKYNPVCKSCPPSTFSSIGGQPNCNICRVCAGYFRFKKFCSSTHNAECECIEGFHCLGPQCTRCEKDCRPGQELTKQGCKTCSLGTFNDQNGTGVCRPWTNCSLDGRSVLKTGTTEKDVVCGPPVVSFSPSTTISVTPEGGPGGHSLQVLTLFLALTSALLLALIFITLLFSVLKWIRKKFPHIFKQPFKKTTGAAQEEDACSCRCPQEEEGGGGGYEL

With “anti-mouse CD137-specific human IgG1 P329G LALA antibody (clone Lob12.3)” the EC50 (read off the curve) [1] was 0.09 nM and the EC50 (read off the curve) [2] was 0.08 nM.
